Laboratory results as given in US20250325672A1.
Non-standard residues stand in square brackets, D forms with d. No end group written: not given here. Sar = CNCC(=O)O

B1: BCY16287 (peptide)
peptide: ACDVCGLNAFNRCA[Sar][Sar][Sar][Sar][Sar][Sar][KFl]
modifications: cysteine pairing not given here
B2: BCY16534 (peptide)
peptide: CASPDNPVCRFYC
modifications: not checked
B3: BCY16905 (peptide)
peptide: CRNPDNPVCRFYC
modifications: not checked
B4: BCY16312 (peptide)
peptide: CPYVAGRGTCLLC
modifications: not checked
B5: BCY16540 (peptide)
peptide: CYNHANPVCRYYC
modifications: not checked
B6: BCY15324 (peptide)
peptide: ACRQSQCDWWAIRSFCA[Sar][Sar][Sar][Sar][Sar][Sar][KFl]
modifications: cysteine pairing not given here
B7: BCY15299 (peptide)
peptide: ACEDHDWVYCSTCA[Sar][Sar][Sar][Sar][Sar][Sar][KFl]
modifications: cysteine pairing not given here
B8: BCY15437 (peptide)
peptide: ACFDDWTCYIQMCA[Sar][Sar][Sar][Sar][Sar][Sar]K(Fl)
modifications: not fully specified; cysteine pairing not given here

Assays:
[1] = molecular target: COVID-19 S1 Spike Protein Mutant V483A (SARS-CoV-2), P0DTC2; assay: FP direct binding
[2] = molecular target: COVID-19 S1 Spike Protein Mutant A475V (SARS-CoV-2), P0DTC2; assay: FP direct binding
[3] = molecular target: COVID-19 S1 Spike Protein Mutant N354D, D364Y (SARS-CoV-2), P0DTC2; assay: FP direct binding
[4] = molecular target: COVID-19 S1 Spike Protein Mutant G476S (SARS-CoV-2), P0DTC2; assay: FP direct binding
[5] = molecular target: COVID-19 S1 Spike Protein Mutant L452R (SARS-CoV-2), P0DTC2; assay: FP direct binding
[6] = molecular target: COVID-19 S1 Spike Protein Mutant E484K (SARS-CoV-2), P0DTC2; assay: FP direct binding
[7] = molecular target: COVID-19 S1 Spike Protein Mutant F490L (SARS-CoV-2), P0DTC2; assay: FP direct binding
[8] = molecular target: wild-type (WT) S1 domain of the SARS-COV-2 Spike Protein (ACROBiosystems, S1N-C82E8) (SARS-CoV-2), P0DTC2; assay: FP direct binding
[9] = molecular target: Biotinylated 2019-nCoV (COVID-19) S1 protein (16-685), His, Avitag (SARS-CoV-2), P0DTC2; assay: SPR, Biacore T200, geomean
[10] = molecular target: COVID-19 S1 Spike Protein Mutant Y453F (SARS-CoV-2), P0DTC2; assay: FP direct binding
[11] = molecular target: COVID-19 S1 Spike Protein Mutant N501Y (SARS-CoV-2), P0DTC2; assay: FP direct binding
[12] = molecular target: COVID-19 S1 Spike Protein Mutant N439K (SARS-CoV-2), P0DTC2; assay: FP direct binding
[13] = molecular target: COVID-19 S1 Spike Protein Mutant K417N, E484K, N501Y (SARS-CoV-2), P0DTC2; assay: FP direct binding
[14] = molecular target: COVID-19 S1 Spike Protein Mutant A262S (SARS-CoV-2), P0DTC2; assay: FP direct binding
[15] = molecular target: COVID-19 S1 Spike Protein Mutant P272L (SARS-CoV-2), P0DTC2; assay: FP direct binding

| Binder | Kd [1] [nM] | Kd [2] [nM] | Kd [4] [nM] | Kd [6] [nM] | Kd [8] [nM] | further results |
| --- | --- | --- | --- | --- | --- | --- |
| B1 | 69 | 54 | 58 | 55 | – | Kd [3]: 1120 nM; Kd [5]: 53 nM; Kd [7]: 49 nM |
| B2 | – | – | – | – | 381 | – |
| B3 | – | – | – | – | – | Kd [9]: 10 nM |
| B4 | – | – | – | – | 759 | – |
| B5 | – | – | – | – | > 883 | – |
| B6 | 751 | 629 | 588 | 1490 | – | Kd [10]: 366 nM; Kd [11]: 1260 nM; Kd [12]: 529 nM |
| B7 | 988 | 710 | 944 | 475 | – | Kd [10]: 579 nM; Kd [5]: 548 nM; Kd [11]: 935 nM; Kd [12]: 531 nM; Kd [7]: 441 nM; Kd [13]: 676 nM |
| B8 | – | – | – | – | – | Kd [14]: 15 nM; Kd [15]: 17 nM |
